The values below come from patent US20240279310A1 (ALPINE IMMUNE SCIENCES, published 2024).

Residue numbers refer to the chain shown, from its start. In names and notes the source's numbering stands. Where two headings read alike, the source gives them in different places.

Targets include cynomolgus monkey APRIL (cynomolgus monkey); rat BAFF (rat); cynomolgus monkey BAFF (cynomolgus monkey, UniProt A0A2K5V2X4 134-285).
Assay in all cases: cell-based or functional assay
The target in assay [1] is T1, recombinant human APRIL (Tonbo Biosciences) (human, UniProt O75888 105-250, limits assumed).
T1 sequence (looked up): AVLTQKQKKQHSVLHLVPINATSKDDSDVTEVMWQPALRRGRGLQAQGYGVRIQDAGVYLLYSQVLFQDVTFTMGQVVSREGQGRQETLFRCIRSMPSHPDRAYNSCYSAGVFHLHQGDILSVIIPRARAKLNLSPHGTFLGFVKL

Assay [2] deals with T2, recombinant human BAFF (BioLegend) (human, UniProt Q9Y275 134-285).
The target of assay [3] is T1, recombinant human APRIL (Tonbo …). The source holds these as a separate data set.
Assay [4] addresses T2, recombinant human BAFF (BioLegend). The source holds these as a separate data set.
The next assay addresses T3, rat APRIL (rat, UniProt A0A8J8XC20 96-241).
T3 sequence: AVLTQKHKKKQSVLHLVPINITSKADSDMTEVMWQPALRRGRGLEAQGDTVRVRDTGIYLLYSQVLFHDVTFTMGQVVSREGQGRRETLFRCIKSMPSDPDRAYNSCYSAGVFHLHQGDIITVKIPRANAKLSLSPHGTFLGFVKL

For assay [5], the target named is T1, recombinant human APRIL (Tonbo …). This is another data set of the same source.
Assay [6] addresses T2, recombinant human BAFF (BioLegend). The source holds these as a separate data set.
Assay [7] has as its target T4, recombinant mouse BAFF (R & D Systems) (mouse, UniProt Q9WU72 127-309).
For assay [8], the target named is T5, recombinant mouse APRIL (ProSci Incorporated) (mouse, UniProt Q9D777 96-241, limits assumed).
T5 sequence (looked up): T3 sequence with Q11H, I19V, M29V, A37V, T50I, R54W, K94R

In assay [9] the target is T1, recombinant human APRIL (Tonbo …). The source holds these as a separate data set.
Assay [10] addresses T2, recombinant human BAFF (BioLegend). This is another data set of the same source.
Assay [11] concerns the target T4, recombinant mouse BAFF (R & D Systems). The source holds these as a separate data set.
The target in assay [12] is T2, recombinant human BAFF (BioLegend). The source holds these as a separate data set.
For assay [13], the target named is T1, recombinant human APRIL (Tonbo …). This is another data set of the same source.
The target of assay [14] is T2, recombinant human BAFF (BioLegend). This is another data set of the same source.
Assay [15] addresses T1, recombinant human APRIL (Tonbo …). This is another data set of the same source.
In assay [16] the target is T2, recombinant human BAFF (BioLegend). This is another data set of the same source.
The target of assay [17] is T1, recombinant human APRIL (Tonbo …). The source holds these as a separate data set.
Assay [18] addresses T2, recombinant human BAFF (BioLegend). The source holds these as a separate data set.
Assay [19] has as its target T5, recombinant mouse APRIL (ProSci …). This is another data set of the same source.

T4 sequence (Q9WU72 127-309 limits assumed): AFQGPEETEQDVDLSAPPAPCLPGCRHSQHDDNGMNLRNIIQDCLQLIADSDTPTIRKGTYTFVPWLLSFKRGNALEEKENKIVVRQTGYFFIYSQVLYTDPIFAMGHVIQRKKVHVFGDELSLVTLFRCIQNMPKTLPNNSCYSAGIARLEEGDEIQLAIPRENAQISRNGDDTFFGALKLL

B1: 7 TACI CRD1/CRD2-Fc (Fc fusion)
TACI vTD-linker-Fc chain: VAMRSCPEEQYWDPLLGTCMSCKTICNHQSQRTCAAFCRSLSCRKEQGKFYDHLLRDCISCASICGQHPKQCDYFCENKLRSGSGGGGSEPKSSDKTHTCPPCPAPEAEGAPSVFLFPPKPKDTLMISRTPEVTCVVVDVSHEDPEVKFNWYVDGVEVHNAKTKPREEQYNSTYRVVSVLTVLHQDWLNGKEYKCKVSNKALPAPIEKTISKAKGQPREPQVYTLPPSRDELTKNQVSLTCLVKGFYPSDIAVEWESNGQPENNYKTTPPVLDSDGSFFLYSKLTVDKSRWQQGNVFSCSVMHEALHNHYTQKSLSLSPG
With B1, the “IC50 (read off the curve)” value in assay [1] is approximately 3 nM; in assay [2] it was approximately 2 nM.

B2: 26 TACI CRD2-Fc (TACI vTD SEQ ID NO:26, K77E/F78Y/Y102D; Fc fusion SEQ ID NO: 167) (Fc fusion)
chain: SLSCRKEQGEYYDHLLRDCISCASICGQHPKQCADFCENKLRSGSGGGGSEPKSSDKTHTCPPCPAPEAEGAPSVFLFPPKPKDTLMISRTPEVTCVVVDVSHEDPEVKFNWYVDGVEVHNAKTKPREEQYNSTYRVVSVLTVLHQDWLNGKEYKCKVSNKALPAPIEKTISKAKGQPREPQVYTLPPSRDELTKNQVSLTCLVKGFYPSDIAVEWESNGQPENNYKTTPPVLDSDGSFFLYSKLTVDKSRWQQGNVFSCSVMHEALHNHYTQKSLSLSPG
As for B2, the “APRIL IC50 (pM)” value in assay [3] came out at 9210 pM. Also, the “APRIL IC50 (Δ WT)” value in [3] is 0.75 ratio. The “BAFF IC50 (pM)” value in [4] worked out at 1550 pM. Besides, the “BAFF IC50 (Δ WT)” value in [4] turned out to be 0.84 ratio. Also, the “APRIL IC50 (nM), signal inhibition in Jurkat/NF-κB/TACI cells” value with cynomolgus monkey APRIL is 3.3 nM; with rat APRIL, 22.7 nM; in [5], 3.4 nM; in assay [8], 24.5 nM. The “BAFF IC50 (nM), signal inhibition in Jurkat/NF-κB/TACI cells” value with rat BAFF was found to be 3.8 nM; in assay [6], 2.8 nM; with cynomolgus monkey BAFF, 1.9 nM; in assay [7] it was 15.2 nM. The “IC50 (nM) APRIL” value was 214 nM in [9] and 179 nM in assay [13]. Also, the “IC50 APRIL (Δ TACI 30-110)” value in assay [9] was 0.05 ratio. Moreover, the results for the “IC50 (nM) BAFF” value in assay [10] and in assay [14] were 1270 nM and 1220 nM, respectively. Also, the “IC50 BAFF (Δ TACI 30-110)” value in assay [10] was 0.28 ratio. Moreover, the “IC50 (read off the curve)” value in assay [11] is approximately 1 nM; in assay [15], approximately 0.6 nM; in assay [16] it was approximately 2 nM. The IC50 value in assay [12] turned out to be 0.078 µg/mL. For the same molecule, the “IC50 APRIL (Δ TACI 30-110-Fc)” value in assay [13] came out at 0.05 ratio. For the same molecule, the “IC50 BAFF (Δ TACI 30-110-Fc)” value in assay [14] was determined as 0.21 ratio. Besides, the “IC50 (pM) APRIL” value in assay [17] turned out to be 1760 pM. The “IC50 (pM) BAFF” value in assay [18] came to 1340 pM.

B3: 13 TACI CRD2-Fc, WT TACI (68-110)-Fc (TACI 68-110, SEQ ID NO: 13, TACI-Fc SEQ ID NO: 171) (Fc fusion)
chain: B2 chain with E10K, Y11F, D35Y
Regarding B3, in [3], the “APRIL IC50 (pM)” value stood at 12300 pM and the “APRIL IC50 (Δ WT)” value is 1 ratio. In addition, in assay [4], the “BAFF IC50 (pM)” value was 1850 pM and the “BAFF IC50 (Δ WT)” value was determined as 1 ratio. In [11], the “IC50 (read off the curve)” value is approximately 5 nM. Besides, the “IC50 (read off the curve)” value in [19] was approximately 0.7 nM. Moreover, in assay [13], the “IC50 (nM) APRIL” value stood at 369 nM and the “IC50 APRIL (Δ TACI 30-110-Fc)” value worked out at 0.1 ratio. Further, in assay [14], the “IC50 (nM) BAFF” value was found to be 1330 nM and the “IC50 BAFF (Δ TACI 30-110-Fc)” value is 0.23 ratio. For the same molecule, in assay [2], the “IC50 (read off the curve)” value is approximately 2 nM. Moreover, the “IC50 (read off the curve)” value in assay [16] was approximately 3 nM.
